# Measured values: article PMC4359774, “AZT resistance alters enzymatic properties and creates an ATP-binding site in SFVmac reverse transcriptase”
# T1: SFVmac PR-RT WT (Simian foamy virus from macaques …, UniProt P23074 1-751)
# T1 sequence: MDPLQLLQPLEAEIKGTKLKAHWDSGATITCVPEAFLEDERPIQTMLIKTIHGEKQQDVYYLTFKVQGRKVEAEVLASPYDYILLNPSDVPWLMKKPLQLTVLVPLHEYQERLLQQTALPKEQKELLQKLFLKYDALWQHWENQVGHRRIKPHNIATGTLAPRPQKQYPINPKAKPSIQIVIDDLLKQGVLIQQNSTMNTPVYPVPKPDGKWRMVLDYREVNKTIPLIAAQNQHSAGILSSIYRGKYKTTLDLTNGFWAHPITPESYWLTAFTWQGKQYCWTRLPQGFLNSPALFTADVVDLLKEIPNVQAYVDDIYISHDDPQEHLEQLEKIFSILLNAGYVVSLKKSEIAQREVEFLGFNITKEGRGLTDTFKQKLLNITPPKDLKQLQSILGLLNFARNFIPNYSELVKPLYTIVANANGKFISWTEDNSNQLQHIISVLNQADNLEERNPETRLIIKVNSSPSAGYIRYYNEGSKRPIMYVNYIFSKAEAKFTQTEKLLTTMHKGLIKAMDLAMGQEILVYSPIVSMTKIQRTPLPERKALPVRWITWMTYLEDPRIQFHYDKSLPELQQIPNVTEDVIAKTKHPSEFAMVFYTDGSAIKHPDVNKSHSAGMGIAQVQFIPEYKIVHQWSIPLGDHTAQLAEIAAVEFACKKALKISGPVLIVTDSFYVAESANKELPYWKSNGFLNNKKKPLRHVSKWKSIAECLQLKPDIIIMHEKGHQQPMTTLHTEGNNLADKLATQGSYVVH
# B1: 24/40-mer DNA/DNA primer/template (dsDNA)
# DNA 1: CTAATTCCGCTTTCCCCTCTCCTGGTGATCCTTTCCATCC
# DNA 2: ATCACCAGGAGAGGGGAAAGCGGA
# Biological target: T1, SFVmac PR-RT WT
# Assay: fluorescence anisotropy; Fluorescence equilibrium titration, 5 nM DNA, 25 C; buffer, salt and pH not given in the material (refs 14, 43)
# Details: protein: recombinant; label: 5' DY647 on template (S6); 24 bp; template 5' overhang 5 nt and 3' overhang 11 nt
binder,measurement,value
B1,Kd,9.6 ± 0.7 nM
